The chains are these.
B1: Defective in germ line development protein 3 (Caenorhabditis elegans), Q95ZK7-1 (parent)
chain: MGEQSHEKDHDEAHSYNPFVRSAVEYDADTRLQMAENAASARKLFVSSALKDIIVNPENFYHDFQQSAQMAEDANQRRQVSYNTKREAHIHQLKAQGLPLPSNIPMIEINPTRVTLNMEFESQYYSLMTSDNGDHENVASIMAETNTLIQLPDRSVGGTTPDPFAQQVTITGYFGDVDRARMLMRRNCHFTVFMALSKMKMPLHELQAHVRQNPIQNVEMSFVDAPEKNGIVTTYLRITAREKNQHELIEAAKRLNEILFRESPAPENNFTLHFTLSTYYVDQVLGSSSTAQLMPVIERETTTIISYPCYNNRNETRGNIYEIKVVGNIDNVLKARRYIMDLLPISMCFNIKNTDMAEPSRVSDRNIHMIIDESGIILKMTPSVYEPADLLSGEVPLNCASLRSKEFNIKKLYTAYQKVLSKKFDFIAPQPNDYDNSIWHHSLPANFLKNFNMPCRGELSDGSNGRRHRSSSIASSRSKHSYMSKGKQFSESSGGPSRSHTRVSSFSENSSTVPIMQFPTPHFAPPMLTPHHHMLKYVYLQQHQQAQTFLKGAAGLHPGTHIMFPPPIIVDGSFVSALPFADPVVFDGFPYVHGLFPVNEAEQHRNHRESSPSLRSTQEIRKPSRNMGNRPSSSTGSYYPSTTPRQRVYEQVREDDLRSHIGSRRTSVNGDDQNVESMHDQGYERQYPRQHQRLQKDDQQRWKTGSRGDIHSSRTINVHRDVRNSNEYDFHVGNSGPAKRSPSLEQVQLQMTHHLKLKSNDVDLDHEKLYMHESPHNDSDTTVSASGFGNDLMDGDFVQRFLSNANINESGRRPRTVSCFTEKDGQSARYIDSDGAYSVVDHASTHQSRSYDSFRKVGDNGVTKTILEPRARVEKDYGKISLEHKTKYSNEYGDEEKSAENDTSSLGSRQYRIDPMKLIASVRESSEQLPRIHERQFSDVLNEKEKEIADKSIESTVTQDLSLDETSTY
partner: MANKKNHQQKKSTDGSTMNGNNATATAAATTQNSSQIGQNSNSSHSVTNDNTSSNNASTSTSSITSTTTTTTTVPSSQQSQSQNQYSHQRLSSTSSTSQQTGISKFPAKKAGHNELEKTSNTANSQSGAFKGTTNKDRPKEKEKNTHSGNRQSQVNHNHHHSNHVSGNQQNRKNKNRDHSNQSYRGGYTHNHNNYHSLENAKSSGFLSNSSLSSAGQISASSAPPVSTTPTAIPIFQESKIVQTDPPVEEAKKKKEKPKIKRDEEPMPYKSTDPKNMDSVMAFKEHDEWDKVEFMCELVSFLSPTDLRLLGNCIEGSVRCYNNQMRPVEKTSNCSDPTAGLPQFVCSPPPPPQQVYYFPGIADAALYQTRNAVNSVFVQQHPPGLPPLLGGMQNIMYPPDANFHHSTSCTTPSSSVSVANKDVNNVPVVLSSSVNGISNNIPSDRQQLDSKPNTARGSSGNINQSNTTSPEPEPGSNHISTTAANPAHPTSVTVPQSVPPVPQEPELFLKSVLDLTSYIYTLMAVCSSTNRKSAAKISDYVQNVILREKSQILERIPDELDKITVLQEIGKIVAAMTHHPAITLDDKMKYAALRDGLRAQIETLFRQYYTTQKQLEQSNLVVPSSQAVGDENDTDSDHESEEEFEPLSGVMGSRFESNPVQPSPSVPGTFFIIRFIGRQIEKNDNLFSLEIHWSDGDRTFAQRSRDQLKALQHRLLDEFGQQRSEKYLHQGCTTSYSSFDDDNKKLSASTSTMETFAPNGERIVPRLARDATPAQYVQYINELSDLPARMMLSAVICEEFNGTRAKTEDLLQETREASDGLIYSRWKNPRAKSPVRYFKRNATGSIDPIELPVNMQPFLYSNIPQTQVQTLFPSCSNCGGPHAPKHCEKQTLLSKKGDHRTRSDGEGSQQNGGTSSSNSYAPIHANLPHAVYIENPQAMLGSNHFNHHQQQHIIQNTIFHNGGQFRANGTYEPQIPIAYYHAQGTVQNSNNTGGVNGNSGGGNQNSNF

This experiment covers variants of B1. The following applies: with gls-1, Q8I4M5-3.
On to G327R, for which the “effect of a mutation on the interaction” value was “disrupting interaction strength”.

The values are drawn from IntAct's records for PubMed 19461891.
